Here are results for eleven substances from US9724381B2 (THE ADMINISTRATORS OF THE TULANE EDUCATIONAL FUND, priority 2009, dated 2017).

Several values for one entry are separate records, joined by “and”; a condition that tells them apart may be missing. Identical values can stand only once. Where no end group is shown, it is not given here. [ ]: non-standard residue; d: D form. d2Nal = N[C@H](Cc1ccc2ccccc2c1)C(=O)O; Orn = NCCC[C@H](N)C(=O)O; Aib = CC(C)(N)C(=O)O; Inp = O=C(O)C1CCNCC1; GABA = NCCCC(=O)O

This assay concerns the target Ghrelin/GHRP/GHS Receptor (Rattus norvegicus, UniProt O08725). Nature of the assay: In vivo GH release in rat (serum GH by RIA after i.v. peptide). The settings on record: for Unstimulated Basal GH Release from rat: Table 3; for Stimulated GH release from rat: Table 2; for Unstimulated Basal GH release from rats: Table 5; for Stimulated (S) GH release from rats / Unstimulated GH release from rats: Table 4, non-pentobarbital rats, peptide 30 μg i.v.; for Stimulated (S) GH release from rats: P + S, stimulator 10 μg; for Unstimulated GH release from rats: −S. As for the experimental part:
For the in vivo assay of GH Release in rat, immature female Sprague Dawley rats were obtained from Charles River from Wilmington, Mass. After arrival they were housed at 25° C. with a 14:10 h light:dark cycle. Water and Purina rat chow were available at libitum. Pups were weaned at 21 days of age.
Immature twenty six day old female Sprague Dawley rats, 3-6 rats per treatment dose, were pretreated with pentobarbital 20 minutes before iv injection of vehicle/peptide or peptide plus stimulator. Injection was made as a 0.1 ml solution. For the non-pentobarbital treated rat assay, peptides were administered iv into the tail vein of conscious rats. All animals were sacrificed by guillotine after iv peptide or vehicle. Trunk blood was collected at +10-15 minutes […], allowed to clot, centrifuged and serum stored until assayed for GH levels by RIA. The GH RIA reagents were distributed by the NIH. Control data was collected from rats treated with only the corresponding vehicle in the absence of peptide or stimulator. Control stimulated data was collected from rats treated with stimulator alone in the absence of any peptide.

Where [1] appears, read: peptide antagonist 10 μg i.v. + stimulator DAla-DβNal-Ala-Trp-DPhe-Lys-NH2 1 μg.
[2] abbreviates: peptide antagonist 30 μg i.v. + stimulator DAla-DβNal-Ala-Trp-DPhe-Lys-NH2 1 μg.
[3] abbreviates: peptide antagonist alone 10 μg i.v.
The mark [4] stands for this setting: peptide antagonist alone 1 μg i.v.
Where [5] appears, read: peptide antagonist alone 30 μg i.v.

Chain of Ghrelin/GHRP/GHS Receptor (O08725 whole entry): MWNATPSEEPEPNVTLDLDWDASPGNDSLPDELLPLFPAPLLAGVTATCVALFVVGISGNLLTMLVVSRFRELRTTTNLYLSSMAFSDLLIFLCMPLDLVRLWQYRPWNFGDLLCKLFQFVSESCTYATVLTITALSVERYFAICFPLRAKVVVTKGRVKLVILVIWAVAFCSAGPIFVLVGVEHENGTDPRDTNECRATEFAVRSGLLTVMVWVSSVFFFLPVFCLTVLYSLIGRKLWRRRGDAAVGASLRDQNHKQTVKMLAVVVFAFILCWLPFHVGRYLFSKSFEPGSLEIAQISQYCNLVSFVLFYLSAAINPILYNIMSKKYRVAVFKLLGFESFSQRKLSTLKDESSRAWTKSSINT

As for “DβNal-Ala-Trp-DPhe-Leu-NH2 ([d2Nal]AW[dF]L-NH2; N-terminus assumed; SMILES CC(C)C[C@H](NC(=O)[C@@H](Cc1ccccc1)NC(=O)[C@H](Cc1c[nH]c2ccccc12)NC(=O)[C@H](C)NC(=O)[C@H](N)Cc1ccc2ccccc2c1)C(N)=O)”, the “Unstimulated Basal GH Release from rat” value runs as follows: (peptide alone 3 μg i.v.) 253 ± 79 ng/mL; (peptide alone 10 μg i.v.) 277 ± 43 ng/mL; (peptide alone 30 μg i.v.) 347 ± 66 ng/mL; (peptide alone 100 μg i.v.) 645 ± 117 ng/mL.
With “Glyψ[CH2NH]-DβNal-Ala-Trp-DPhe-Lys-NH2 (G[d2Nal]AW[dF]K-NH2; also: reduced Gly-ψ[CH2NH] bond between Gly1 and DβNal2)”, the “Stimulated GH release from rat” value is 1112 ± 200 ng/mL (peptide antagonist 10 μg i.v. + stimulator DAla-DβNal-Ala-Trp-DPhe-Lys-NH2 0.3 μg); 2307 ± 176 ng/mL and 1842 ± 454 ng/mL under setting [1]; 578 ± 82 ng/mL (peptide antagonist 30 μg i.v. + stimulator DAla-DβNal-Ala-Trp-DPhe-Lys-NH2 0.3 μg); 890 ± 236 ng/mL and 1135 ± 140 ng/mL under setting [2].
Regarding “Glyψ[CH2NH]-DβNal-DLys-Trp-DPhe-Lys-NH2 (G[d2Nal][dK]W[dF]K-NH2; also: reduced Gly-ψ[CH2NH] bond between Gly1 and DβNal2)”, the “Stimulated GH release from rat” value reads like this: (peptide antagonist 1 μg i.v. + stimulator DAla-DβNal-Ala-Trp-DPhe-Lys-NH2 1 μg) 2305 ± 320 ng/mL; (peptide antagonist 3 μg i.v. + stimulator DAla-DβNal-Ala-Trp-DPhe-Lys-NH2 1 μg) 1990 ± 196 ng/mL; under setting [1], 1550 ± 284 ng/mL; under setting [2], 946 ± 133 ng/mL; (peptide antagonist 100 μg i.v. + stimulator DAla-DβNal-Ala-Trp-DPhe-Lys-NH2 1 μg) 462 ± 122 ng/mL.
On to “His-DTrp-Phe-Trp-DPhe-Lys-NH2 (H[dW]FW[dF]K-NH2; N-terminus assumed; SMILES NCCCC[C@H](NC(=O)[C@@H](Cc1ccccc1)NC(=O)[C@H](Cc1c[nH]c2ccccc12)NC(=O)[C@H](Cc1ccccc1)NC(=O)[C@@H](Cc1c[nH]c2ccccc12)NC(=O)[C@@H](N)Cc1c[nH]cn1)C(N)=O)”, for which the “Unstimulated Basal GH Release from rat” value by setting is: (peptide alone 1 μg i.v.) 67 ± 14 ng/mL; (peptide alone 3 μg i.v.) 141 ± 53 ng/mL; (peptide alone 10 μg i.v.) 197 ± 70 ng/mL; (peptide alone 30 μg i.v.) 509 ± 48 ng/mL.
For “His-Trp-DAla-DTrp-Phe-LysNH2 (HW[dA][dW]FK-NH2)”, the “Unstimulated Basal GH Release from rat” value turned out to be 204 ± 44 ng/mL (peptide alone 1 μg i.v.), 127 ± 44 ng/mL (peptide alone 3 μg i.v.) and 83 ± 5 ng/mL (peptide alone 10 μg i.v.).
For “Lys-DHis-DTrp-Phe-NH2 (K[dH][dW]F-NH2; N-terminus assumed; SMILES NCCCC[C@H](N)C(=O)N[C@H](Cc1c[nH]cn1)C(=O)N[C@H](Cc1c[nH]c2ccccc12)C(=O)N[C@@H](Cc1ccccc1)C(N)=O)”, the “Unstimulated Basal GH release from rats” value under setting [3] worked out at 121 ± 24 ng/mL.
As for “Tyr-DAla-Phe-Aib-NH2 (Y[dA]F[Aib]-NH2; N-terminus assumed; SMILES C[C@@H](NC(=O)[C@@H](N)Cc1ccc(O)cc1)C(=O)N[C@@H](Cc1ccccc1)C(=O)NC(C)(C)C(N)=O) [Tyr-DAla-Phe-Alb-NH2]”, the “Stimulated (S) GH release from rats” value was 23 ± 5 ng/mL and the “Unstimulated GH release from rats” value came out at 18 ± 1 ng/mL.
With Tyr-DAla-Sar-NMePhe-NH2, the “Stimulated (S) GH release from rats” value was found to be 24 ± 6 ng/mL and the “Unstimulated GH release from rats” value is 18 ± 4 ng/mL.
For [GABA][dW][dW][Orn]-NH2, the “Unstimulated Basal GH release from rats” value under setting [4] was determined as 82 ± 28 ng/mL, the “Unstimulated Basal GH release from rats” value under setting [3] was found to be 90 ± 5 ng/mL and the “Unstimulated Basal GH release from rats” value under setting [5] was 113 ± 32 ng/mL.
With “inip-Trp-Trp-Phe-NH2 ([Inp]WWF-NH2; N-terminus assumed; SMILES NC(=O)[C@H](Cc1ccccc1)NC(=O)[C@H](Cc1c[nH]c2ccccc12)NC(=O)[C@H](Cc1c[nH]c2ccccc12)NC(=O)C1CCNCC1)”, the “Unstimulated Basal GH release from rats” value runs as follows: under setting [3], 69 ± 3 ng/mL; under setting [5], 81 ± 10 ng/mL.
As for αAbu-DTrp-DTrp-Orn-NH2, the “Unstimulated Basal GH release from rats” value came out at 85 ± 25 ng/mL under setting [4], 88 ± 18 ng/mL under setting [3] and 50 ± 6 ng/mL under setting [5].
